# Measurements from patent publication US20050142135A1 (published 2005).
# B1: hCG (ligand)
# chain 1: not shown
# chain 2: SKEPLRPRCRPINATLAVEKEGCPVCITVNTTICAGYCPTMTRVLQGVLPALPQVVCNYRDVRFESIRLPGCPRGVNPVVSYAVALSCQCALCRRSTTDCGGPKDHPLTCDDPRFQDSSSSKAPPPSLPSPSRLPGPSDTPILPQ
# B2: human FSH (ligand)
# chain 1: not shown
# chain 2: NSCELTNITIAIEKEECRFCISINTTWCAGYCYTRDLVYKDPARPKIQKTCTFKELVYETVRVPGCAHHADSLYTYPVATQCHCGKCDSDSTDCTVRGLGPSYCSFGEMKE
# B3: FSH (ligand)
# chain 1: not shown
# chain 2: NSCELTNITIAIEKEECRFCISINTTWCAGYCYTRDLVYKDPARPKIQKTCTFKELVYETVRVPGCAHHADSLYTYPVATQCHCGKCDSDSTDCTVRGLGPSYCSFGEMKE
# Key:
# [1] = molecular target: T1, human LH receptor, wild type (human, UniProt P22888 27-699); test: 125I-hCG displacement / Scatchard; panels A-C
# T1 sequence (P22888 27-699): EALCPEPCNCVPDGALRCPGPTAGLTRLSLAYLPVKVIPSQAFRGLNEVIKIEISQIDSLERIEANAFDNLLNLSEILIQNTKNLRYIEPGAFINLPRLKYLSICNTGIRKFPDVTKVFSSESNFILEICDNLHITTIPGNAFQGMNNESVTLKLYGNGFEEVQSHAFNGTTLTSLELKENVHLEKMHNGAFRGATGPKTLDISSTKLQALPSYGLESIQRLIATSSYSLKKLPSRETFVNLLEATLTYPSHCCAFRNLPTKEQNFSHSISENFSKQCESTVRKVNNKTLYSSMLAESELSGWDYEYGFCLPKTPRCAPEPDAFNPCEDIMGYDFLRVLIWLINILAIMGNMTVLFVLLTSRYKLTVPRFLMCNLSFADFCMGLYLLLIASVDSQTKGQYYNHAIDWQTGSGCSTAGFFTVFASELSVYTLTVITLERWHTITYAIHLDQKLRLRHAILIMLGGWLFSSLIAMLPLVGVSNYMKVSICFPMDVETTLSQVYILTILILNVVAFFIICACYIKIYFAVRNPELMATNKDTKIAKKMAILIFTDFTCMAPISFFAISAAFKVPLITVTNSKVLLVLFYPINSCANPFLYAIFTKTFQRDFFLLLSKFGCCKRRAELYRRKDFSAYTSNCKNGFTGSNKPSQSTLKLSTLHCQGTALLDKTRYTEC
# [2] = molecular target: T1, human LH receptor, wild type; test: 125I-hCG displacement / Scatchard; panels D-F
# [3] = molecular target: T2, FSHR^L14A (human, UniProt P23945 18-695)
# T2 chain: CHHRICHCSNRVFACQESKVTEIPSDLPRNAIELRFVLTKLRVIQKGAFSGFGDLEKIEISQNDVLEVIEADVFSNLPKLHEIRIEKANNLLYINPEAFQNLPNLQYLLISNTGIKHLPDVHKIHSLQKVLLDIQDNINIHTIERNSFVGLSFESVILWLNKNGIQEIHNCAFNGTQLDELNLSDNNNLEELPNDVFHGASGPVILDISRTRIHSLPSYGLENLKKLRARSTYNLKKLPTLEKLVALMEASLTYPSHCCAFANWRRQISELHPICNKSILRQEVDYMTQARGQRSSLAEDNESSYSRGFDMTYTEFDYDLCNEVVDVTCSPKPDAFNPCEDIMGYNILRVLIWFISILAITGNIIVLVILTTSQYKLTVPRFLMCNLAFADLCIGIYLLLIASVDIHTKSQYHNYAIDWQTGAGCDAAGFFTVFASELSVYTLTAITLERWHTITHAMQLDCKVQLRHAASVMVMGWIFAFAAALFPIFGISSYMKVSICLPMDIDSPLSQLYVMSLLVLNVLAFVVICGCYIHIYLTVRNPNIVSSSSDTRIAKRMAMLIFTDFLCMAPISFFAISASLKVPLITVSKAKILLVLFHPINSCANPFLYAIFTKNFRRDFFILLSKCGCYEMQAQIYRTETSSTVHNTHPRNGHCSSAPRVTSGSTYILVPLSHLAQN
# [4] = molecular target: T3, FSHR^S18A (human, UniProt P23945 18-695)
# T3 chain: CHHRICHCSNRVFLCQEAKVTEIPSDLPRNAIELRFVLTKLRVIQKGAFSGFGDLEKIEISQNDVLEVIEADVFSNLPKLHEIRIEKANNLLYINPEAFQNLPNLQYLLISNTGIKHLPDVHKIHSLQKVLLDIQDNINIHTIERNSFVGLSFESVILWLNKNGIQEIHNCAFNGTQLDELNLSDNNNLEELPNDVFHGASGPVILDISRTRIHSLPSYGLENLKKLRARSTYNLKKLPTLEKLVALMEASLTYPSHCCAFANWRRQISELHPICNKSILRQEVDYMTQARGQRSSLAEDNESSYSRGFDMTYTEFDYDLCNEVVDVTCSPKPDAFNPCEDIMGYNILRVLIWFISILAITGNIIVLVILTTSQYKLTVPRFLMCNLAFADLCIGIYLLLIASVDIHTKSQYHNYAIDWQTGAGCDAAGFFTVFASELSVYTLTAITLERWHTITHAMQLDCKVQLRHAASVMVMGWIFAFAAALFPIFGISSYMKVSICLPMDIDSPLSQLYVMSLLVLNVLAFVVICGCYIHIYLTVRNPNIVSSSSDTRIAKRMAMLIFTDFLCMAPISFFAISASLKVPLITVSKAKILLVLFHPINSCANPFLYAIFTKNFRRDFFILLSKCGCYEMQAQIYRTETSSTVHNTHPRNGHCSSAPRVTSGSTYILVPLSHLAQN
# [5] = molecular target: T4, FSHR^V12A (human, UniProt P23945 18-695)
# T4 chain: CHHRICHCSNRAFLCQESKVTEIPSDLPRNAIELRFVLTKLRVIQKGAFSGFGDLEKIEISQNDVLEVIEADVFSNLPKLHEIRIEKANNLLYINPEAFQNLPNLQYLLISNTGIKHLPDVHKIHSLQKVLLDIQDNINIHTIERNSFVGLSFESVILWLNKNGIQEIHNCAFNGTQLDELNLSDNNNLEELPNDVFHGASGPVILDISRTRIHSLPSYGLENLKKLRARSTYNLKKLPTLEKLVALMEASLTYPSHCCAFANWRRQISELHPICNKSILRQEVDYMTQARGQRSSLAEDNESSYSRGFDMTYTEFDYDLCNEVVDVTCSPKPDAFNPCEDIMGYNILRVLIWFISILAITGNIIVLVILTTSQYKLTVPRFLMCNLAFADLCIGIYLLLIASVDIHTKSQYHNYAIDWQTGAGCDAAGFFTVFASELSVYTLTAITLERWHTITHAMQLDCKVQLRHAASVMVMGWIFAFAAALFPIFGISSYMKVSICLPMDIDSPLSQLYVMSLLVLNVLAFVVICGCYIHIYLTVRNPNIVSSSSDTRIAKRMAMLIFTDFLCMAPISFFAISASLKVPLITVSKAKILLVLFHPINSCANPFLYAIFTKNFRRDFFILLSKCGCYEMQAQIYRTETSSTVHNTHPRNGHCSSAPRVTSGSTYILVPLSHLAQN
# [6] = molecular target: T5, FSHR^F13A (human, UniProt P23945 18-695)
# T5 chain: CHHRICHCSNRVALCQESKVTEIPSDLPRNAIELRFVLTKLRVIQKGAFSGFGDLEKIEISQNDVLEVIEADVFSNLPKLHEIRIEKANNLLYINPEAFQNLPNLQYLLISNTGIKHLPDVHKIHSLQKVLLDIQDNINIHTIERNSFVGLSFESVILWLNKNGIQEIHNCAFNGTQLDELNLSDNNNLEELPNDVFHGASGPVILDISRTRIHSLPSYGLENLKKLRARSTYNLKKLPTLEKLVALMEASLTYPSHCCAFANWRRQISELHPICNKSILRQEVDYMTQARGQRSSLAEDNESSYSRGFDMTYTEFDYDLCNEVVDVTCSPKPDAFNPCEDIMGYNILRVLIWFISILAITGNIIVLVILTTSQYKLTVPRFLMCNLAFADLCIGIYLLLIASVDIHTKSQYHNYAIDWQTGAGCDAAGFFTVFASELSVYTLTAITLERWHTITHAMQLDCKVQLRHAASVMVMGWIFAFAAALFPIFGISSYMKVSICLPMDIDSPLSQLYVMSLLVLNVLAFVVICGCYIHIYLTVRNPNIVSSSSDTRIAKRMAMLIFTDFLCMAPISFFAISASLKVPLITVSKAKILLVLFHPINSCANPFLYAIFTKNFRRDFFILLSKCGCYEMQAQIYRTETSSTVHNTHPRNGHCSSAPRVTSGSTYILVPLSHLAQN
# [7] = molecular target: T6, FSHR^N10A (human, UniProt P23945 18-695)
# T6 chain: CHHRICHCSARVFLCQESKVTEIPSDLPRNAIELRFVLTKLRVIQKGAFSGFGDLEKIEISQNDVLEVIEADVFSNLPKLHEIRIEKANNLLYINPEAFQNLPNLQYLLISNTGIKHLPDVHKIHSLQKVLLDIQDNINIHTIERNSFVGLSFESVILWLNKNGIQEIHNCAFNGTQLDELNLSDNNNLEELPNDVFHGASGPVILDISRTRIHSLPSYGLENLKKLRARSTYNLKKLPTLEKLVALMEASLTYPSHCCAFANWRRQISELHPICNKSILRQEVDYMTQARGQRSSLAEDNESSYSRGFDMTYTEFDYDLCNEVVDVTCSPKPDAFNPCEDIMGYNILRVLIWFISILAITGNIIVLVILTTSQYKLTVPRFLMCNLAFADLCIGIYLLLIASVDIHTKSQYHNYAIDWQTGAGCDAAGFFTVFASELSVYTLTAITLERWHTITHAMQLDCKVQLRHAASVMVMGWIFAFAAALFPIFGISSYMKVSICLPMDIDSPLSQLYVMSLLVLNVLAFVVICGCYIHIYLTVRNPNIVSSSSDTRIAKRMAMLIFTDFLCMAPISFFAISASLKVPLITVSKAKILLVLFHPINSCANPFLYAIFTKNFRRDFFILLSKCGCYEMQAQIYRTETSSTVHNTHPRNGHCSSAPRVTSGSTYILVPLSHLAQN
# [8] = molecular target: T7, FSHR^S9A (human, UniProt P23945 18-695)
# T7 chain: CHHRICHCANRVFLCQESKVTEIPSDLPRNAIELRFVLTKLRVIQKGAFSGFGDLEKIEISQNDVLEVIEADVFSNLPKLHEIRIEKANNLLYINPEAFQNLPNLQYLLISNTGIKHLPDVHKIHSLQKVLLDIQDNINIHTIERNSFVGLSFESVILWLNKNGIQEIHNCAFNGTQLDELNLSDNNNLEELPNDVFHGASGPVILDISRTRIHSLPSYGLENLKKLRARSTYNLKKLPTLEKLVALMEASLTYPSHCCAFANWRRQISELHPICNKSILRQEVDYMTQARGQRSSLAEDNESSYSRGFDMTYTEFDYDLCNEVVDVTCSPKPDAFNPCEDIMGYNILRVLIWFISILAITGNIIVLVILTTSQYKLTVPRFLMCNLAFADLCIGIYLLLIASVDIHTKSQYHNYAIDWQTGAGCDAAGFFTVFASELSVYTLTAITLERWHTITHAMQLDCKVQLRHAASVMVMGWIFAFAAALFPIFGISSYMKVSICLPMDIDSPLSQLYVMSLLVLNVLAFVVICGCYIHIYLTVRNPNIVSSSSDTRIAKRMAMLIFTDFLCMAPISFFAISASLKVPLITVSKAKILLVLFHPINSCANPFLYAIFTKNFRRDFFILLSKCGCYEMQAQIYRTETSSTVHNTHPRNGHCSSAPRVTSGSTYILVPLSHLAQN
# [9] = molecular target: P582 E; test: 125I-FSH displacement / Scatchard
# [10] = molecular target: P582 D; test: 125I-FSH displacement / Scatchard
# [11] = molecular target: P582 R; test: 125I-FSH displacement / Scatchard
# [12] = molecular target: P582 Q; test: 125I-FSH displacement / Scatchard
# [13] = molecular target: P582 Y; test: 125I-FSH displacement / Scatchard
# [14] = molecular target: P582 L; test: 125I-FSH displacement / Scatchard
# [15] = molecular target: P582 S; test: 125I-FSH displacement / Scatchard
# [16] = molecular target: P582 F; test: 125I-FSH displacement / Scatchard
# [17] = molecular target: P582 C; test: 125I-FSH displacement / Scatchard
# [18] = molecular target: P; test: 125I-FSH displacement, Scatchard
# [19] = molecular target: C; test: 125I-FSH displacement, Scatchard
# [20] = molecular target: D; test: 125I-FSH displacement, Scatchard
# [21] = molecular target: K590 Q; test: 125I-FSH displacement / Scatchard
binder,measurement,setting,value
B1,Kd,[1],0.412 nM
same,Kd,[2],0.412 nM
B2,Kd,[3],1.37 nM
same,Kd,[4],3.64 nM
same,Kd,[5],2.53 nM
same,Kd,[6],2.56 nM
same,Kd,[7],1.56 nM
same,Kd,[8],2.78 nM
B3,Kd,[9],6.5 nM
same,Kd,[10],3.6 nM
same,Kd,[11],4.1 nM
same,Kd,[12],6.2 nM
same,Kd,[13],4.3 nM
same,Kd,[14],1.9 nM
same,Kd,[15],4.5 nM
same,Kd,[16],4.7 nM
same,Kd,[17],2.4 nM
same,Kd,[18],1.6 nM
same,Kd,[19],3.9 nM
same,Kd,[20],1.2 nM
same,Kd,[21],19.6 nM
